By stoichiometry N is commonly meant a count of units in the complex or per binding partner.

The data set deals with the molecule itself. Nature of the data set: non-reducing SDS-PAGE with western blot; insoluble fraction (final pellet after Triton X-100 extraction) of SN tissue from control, MPTP/probenecid and NSA-treated mice, resuspended by sonication in 2% SDS lysis buffer, loaded with non-reducing sample buffer; anti-MLKL blot.

B1: mixed lineage kinase domain-like protein (natural protein, UniProt Q9D2Y4 1-472, looked up)
chain: MDKLGQIIKLGQLIYEQCEKMKYCRKQCQRLGNRVHGLLQPLQRLQAQGKKNLPDDITAALGRFDEVLKEANQQIEKFSKKSHIWKFVSVGNDKILFHEVNEKLRDVWEELLLLLQVYHWNTVSDVSQPASWQQEDRQDAEEDGNENMKVILMQLQISVEEINKTLKQCSLKPTQEIPQDLQIKEIPKEHLGPPWTKLKTSKMSTIYRGEYHRSPVTIKVFNNPQAESVGIVRFTFNDEIKTMKKFDSPNILRIFGICIDQTVKPPEFSIVMEYCELGTLRELLDREKDLTMSVRSLLVLRAARGLYRLHHSETLHRNISSSSFLVAGGYQVKLAGFELSKTQNSISRTAKSTKAERSSSTIYVSPERLKNPFCLYDIKAEIYSFGIVLWEIATGKIPFEGCDSKKIRELVAEDKKQEPVGQDCPELLREIINECRAHEPSQRPSVDGRSLSGRERILERLSAVEESTDKKV
notes: mixed lineage kinase domain-like protein (MLKL), mouse, endogenous in the substantia nigra of C57BL/6 mice; Seen as a tetramer band in the insoluble fraction (non-reducing sample buffer) and as an oligomer on an A11 blot; also called MLKL; source: endogenous, mouse substantia nigra tissue lysate
Consider B1, for which the “stoichiometry N” value was found to be 4.

For the origin of these results see paper PMC10232437 (Scientific Reports, 2023).
